Our source for the Protease Inhibition (% of WT); Protease Mixtures, IGD Substrate values is US20230250154A1.

To fix the notation:
B1: Variant A2M, bait region SEQ ID NO 129, P01023 24-1474 (protein)
chain: SVSGKPQYMVLVPSLLHTETTEKGCVLLSYLNETVTVSASLESVRGNRSLFTDLEAENDVLHCVAFAVPKSSSNEEVMFLTVQVKGPTQEFKKRTTVMVKNEDSLVFVQTDKSIYKPGQTVKFRVVSMDENFHPLNELIPLVYIQDPKGNRIAQWQSFQLEGGLKQFSFPLSSEPFQGSYKVVVQKKSGGRTEHPFTVEEFVLPKFEVQVTVPKIITILEEEMNVSVCGLYTYGKPVPGHVTVSICRKYSDASDCHGEDSQAFCEKFSGQLNSHGCFYQQVKTKVFQLKRKEYEMKLHTEAQIQEEGTVVELTGRQSSEITRTITKLSFVKVDSHFRQGIPFFGQVRLVDGKGVPIPNKVIFIRGNEANYYSNATTDEHGLVQFSINTTNVMGTSLTVRVNYKDRSPCYGYQWVSEEHEEAHHTAYLVFSPSKSFVHLEPMSHELPCGHTQTVQAHYILNGGTLLGLKKLSFYYLIMAKGGIVRTGTHGLLVKQEDMKGHFSISIPVKSDIAPVARLLIYAVLPTGDVIGDSAKYDVENCLANKVDLSFSPSQSLPASHAHLRVTAAPQSVCALRAVDQSVLLMKPDAELSASSVYNLLPEKDLTGFPGPLNDQDDEDCINRHNVYINGITYTPVSSTNEKDMYSFLEDMGLKAFTNSKIRKPKMCPQLEQYEMHGPEAIPMSIPTEGEGEGEGIPENFFGVSEDLVVQIVEEPHTKLRKYFPETWIWDLVVVNSAGVAEVGVTVPDTITEWKAGAFCLSEDAGLGISSTASLRAFQPFFVELTMPYSVIRGEAFTLKATVLNYLPKCIRVSVQLEASPAFLAVPVEKEQAPHCICANGRQTVSWAVTPKSLGNVNFTVSAEALESQELCGTEVPSVPEHGRKDTVIKPLLVEPEGLEKETTFNSLLCPSGGEVSEELSLKLPPNVVEESARASVSVLGDILGSAMQNTQNLLQMPYGCGEQNMVLFAPNIYVLDYLNETQQLTPEIKSKAIGYLNTGYQRQLNYKHYDGSYSTFGERYGRNQGNTWLTAFVLKTFAQARAYIFIDEAHITQALIWLSQRQKDNGCFRSSGSLLNNAIKGGVEDEVTLSAYITIALLEIPLTVTHPVVRNALFCLESAWKTAQEGDHGSHVYTKALLAYAFALAGNQDKRKEVLKSLNEEAVKKDNSVHWERPQKPKAPVGHFYEPQAPSAEVEMTSYVLLAYLTAQPAPTSEDLTSATNIVKWITKQQNAQGGFSSTQDTVVALHALSKYGAATFTRTGKAAQVTIQSSGTFSSKFQVDNNNRLLLQQVSLPELPGEYSMKVTGEGCVYLQTSLKYNILPEKEEFPFALGVQTLPQTCDEPKAHTSFQISLSVSYTGSRSASNMAIVDVKMVSGFIPLKPTVKMLERSNHVSRTEVSSNHVLIYLDKVSNQTLSLFFTVLQDVPVRDLKPAIVKVYDYYETDEFAIAEYNAPCSKDLGNADYKDDDDKGASHHHHHH
B2: Variant A2M, bait region SEQ ID NO 131, P01023 24-1474 (protein)
chain: SVSGKPQYMVLVPSLLHTETTEKGCVLLSYLNETVTVSASLESVRGNRSLFTDLEAENDVLHCVAFAVPKSSSNEEVMFLTVQVKGPTQEFKKRTTVMVKNEDSLVFVQTDKSIYKPGQTVKFRVVSMDENFHPLNELIPLVYIQDPKGNRIAQWQSFQLEGGLKQFSFPLSSEPFQGSYKVVVQKKSGGRTEHPFTVEEFVLPKFEVQVTVPKIITILEEEMNVSVCGLYTYGKPVPGHVTVSICRKYSDASDCHGEDSQAFCEKFSGQLNSHGCFYQQVKTKVFQLKRKEYEMKLHTEAQIQEEGTVVELTGRQSSEITRTITKLSFVKVDSHFRQGIPFFGQVRLVDGKGVPIPNKVIFIRGNEANYYSNATTDEHGLVQFSINTTNVMGTSLTVRVNYKDRSPCYGYQWVSEEHEEAHHTAYLVFSPSKSFVHLEPMSHELPCGHTQTVQAHYILNGGTLLGLKKLSFYYLIMAKGGIVRTGTHGLLVKQEDMKGHFSISIPVKSDIAPVARLLIYAVLPTGDVIGDSAKYDVENCLANKVDLSFSPSQSLPASHAHLRVTAAPQSVCALRAVDQSVLLMKPDAELSASSVYNLLPEKDLTGFPGPLNDQDDEDCINRHNVYINGITYTPVSSTNEKDMYSFLEDMGLKAFTNSKIRKPKMCPQLEQYEMHGPEGEGEGEGISEDLVVQIPENFFGVKEEEGLGSVEEPHTKLRKYFPETWIWDLVVVNSAGVAEVGVTVPDTITEWKAGAFCLSEDAGLGISSTASLRAFQPFFVELTMPYSVIRGEAFTLKATVLNYLPKCIRVSVQLEASPAFLAVPVEKEQAPHCICANGRQTVSWAVTPKSLGNVNFTVSAEALESQELCGTEVPSVPEHGRKDTVIKPLLVEPEGLEKETTFNSLLCPSGGEVSEELSLKLPPNVVEESARASVSVLGDILGSAMQNTQNLLQMPYGCGEQNMVLFAPNIYVLDYLNETQQLTPEIKSKAIGYLNTGYQRQLNYKHYDGSYSTFGERYGRNQGNTWLTAFVLKTFAQARAYIFIDEAHITQALIWLSQRQKDNGCFRSSGSLLNNAIKGGVEDEVTLSAYITIALLEIPLTVTHPVVRNALFCLESAWKTAQEGDHGSHVYTKALLAYAFALAGNQDKRKEVLKSLNEEAVKKDNSVHWERPQKPKAPVGHFYEPQAPSAEVEMTSYVLLAYLTAQPAPTSEDLTSATNIVKWITKQQNAQGGFSSTQDTVVALHALSKYGAATFTRTGKAAQVTIQSSGTFSSKFQVDNNNRLLLQQVSLPELPGEYSMKVTGEGCVYLQTSLKYNILPEKEEFPFALGVQTLPQTCDEPKAHTSFQISLSVSYTGSRSASNMAIVDVKMVSGFIPLKPTVKMLERSNHVSRTEVSSNHVLIYLDKVSNQTLSLFFTVLQDVPVRDLKPAIVKVYDYYETDEFAIAEYNAPCSKDLGNADYKDDDDKGASHHHHHH
B3: Variant A2M, bait region SEQ ID NO 128, P01023 24-1474 (protein)
chain: SVSGKPQYMVLVPSLLHTETTEKGCVLLSYLNETVTVSASLESVRGNRSLFTDLEAENDVLHCVAFAVPKSSSNEEVMFLTVQVKGPTQEFKKRTTVMVKNEDSLVFVQTDKSIYKPGQTVKFRVVSMDENFHPLNELIPLVYIQDPKGNRIAQWQSFQLEGGLKQFSFPLSSEPFQGSYKVVVQKKSGGRTEHPFTVEEFVLPKFEVQVTVPKIITILEEEMNVSVCGLYTYGKPVPGHVTVSICRKYSDASDCHGEDSQAFCEKFSGQLNSHGCFYQQVKTKVFQLKRKEYEMKLHTEAQIQEEGTVVELTGRQSSEITRTITKLSFVKVDSHFRQGIPFFGQVRLVDGKGVPIPNKVIFIRGNEANYYSNATTDEHGLVQFSINTTNVMGTSLTVRVNYKDRSPCYGYQWVSEEHEEAHHTAYLVFSPSKSFVHLEPMSHELPCGHTQTVQAHYILNGGTLLGLKKLSFYYLIMAKGGIVRTGTHGLLVKQEDMKGHFSISIPVKSDIAPVARLLIYAVLPTGDVIGDSAKYDVENCLANKVDLSFSPSQSLPASHAHLRVTAAPQSVCALRAVDQSVLLMKPDAELSASSVYNLLPEKDLTGFPGPLNDQDDEDCINRHNVYINGITYTPVSSTNEKDMYSFLEDMGLKAFTNSKIRKPKMCPQLEQYEMHGPSELEGRGSEAIPMSIPTKEEEGLGSIPENFFGVVEEPHTKLRKYFPETWIWDLVVVNSAGVAEVGVTVPDTITEWKAGAFCLSEDAGLGISSTASLRAFQPFFVELTMPYSVIRGEAFTLKATVLNYLPKCIRVSVQLEASPAFLAVPVEKEQAPHCICANGRQTVSWAVTPKSLGNVNFTVSAEALESQELCGTEVPSVPEHGRKDTVIKPLLVEPEGLEKETTFNSLLCPSGGEVSEELSLKLPPNVVEESARASVSVLGDILGSAMQNTQNLLQMPYGCGEQNMVLFAPNIYVLDYLNETQQLTPEIKSKAIGYLNTGYQRQLNYKHYDGSYSTFGERYGRNQGNTWLTAFVLKTFAQARAYIFIDEAHITQALIWLSQRQKDNGCFRSSGSLLNNAIKGGVEDEVTLSAYITIALLEIPLTVTHPVVRNALFCLESAWKTAQEGDHGSHVYTKALLAYAFALAGNQDKRKEVLKSLNEEAVKKDNSVHWERPQKPKAPVGHFYEPQAPSAEVEMTSYVLLAYLTAQPAPTSEDLTSATNIVKWITKQQNAQGGFSSTQDTVVALHALSKYGAATFTRTGKAAQVTIQSSGTFSSKFQVDNNNRLLLQQVSLPELPGEYSMKVTGEGCVYLQTSLKYNILPEKEEFPFALGVQTLPQTCDEPKAHTSFQISLSVSYTGSRSASNMAIVDVKMVSGFIPLKPTVKMLERSNHVSRTEVSSNHVLIYLDKVSNQTLSLFFTVLQDVPVRDLKPAIVKVYDYYETDEFAIAEYNAPCSKDLGNADYKDDDDKGASHHHHHH

In the experiment the target is Protease Mixtures. Put plainly: cell-based or functional assay.
In the case of B1, the Protease Inhibition (% of WT); Protease Mixtures, IGD Substrate is 160 % of WT.

Take B2: the Protease Inhibition (% of WT); Protease Mixtures, IGD Substrate was 150 % of WT.

Take B3: the Protease Inhibition (% of WT); Protease Mixtures, IGD Substrate is 125 % of WT.
